Among the data in patent publication US7667021 (dated 2010) are Kd values, retold here.

Assay [1] concerns the target IGFR1 (human). The experiment in a line: SPR, 25C.
Assay [2] concerns the target IGFR1 (human). The experiment in a line: SPR, 37C.

Sequence of IGFR1 (human) (B1B5Y2 whole entry): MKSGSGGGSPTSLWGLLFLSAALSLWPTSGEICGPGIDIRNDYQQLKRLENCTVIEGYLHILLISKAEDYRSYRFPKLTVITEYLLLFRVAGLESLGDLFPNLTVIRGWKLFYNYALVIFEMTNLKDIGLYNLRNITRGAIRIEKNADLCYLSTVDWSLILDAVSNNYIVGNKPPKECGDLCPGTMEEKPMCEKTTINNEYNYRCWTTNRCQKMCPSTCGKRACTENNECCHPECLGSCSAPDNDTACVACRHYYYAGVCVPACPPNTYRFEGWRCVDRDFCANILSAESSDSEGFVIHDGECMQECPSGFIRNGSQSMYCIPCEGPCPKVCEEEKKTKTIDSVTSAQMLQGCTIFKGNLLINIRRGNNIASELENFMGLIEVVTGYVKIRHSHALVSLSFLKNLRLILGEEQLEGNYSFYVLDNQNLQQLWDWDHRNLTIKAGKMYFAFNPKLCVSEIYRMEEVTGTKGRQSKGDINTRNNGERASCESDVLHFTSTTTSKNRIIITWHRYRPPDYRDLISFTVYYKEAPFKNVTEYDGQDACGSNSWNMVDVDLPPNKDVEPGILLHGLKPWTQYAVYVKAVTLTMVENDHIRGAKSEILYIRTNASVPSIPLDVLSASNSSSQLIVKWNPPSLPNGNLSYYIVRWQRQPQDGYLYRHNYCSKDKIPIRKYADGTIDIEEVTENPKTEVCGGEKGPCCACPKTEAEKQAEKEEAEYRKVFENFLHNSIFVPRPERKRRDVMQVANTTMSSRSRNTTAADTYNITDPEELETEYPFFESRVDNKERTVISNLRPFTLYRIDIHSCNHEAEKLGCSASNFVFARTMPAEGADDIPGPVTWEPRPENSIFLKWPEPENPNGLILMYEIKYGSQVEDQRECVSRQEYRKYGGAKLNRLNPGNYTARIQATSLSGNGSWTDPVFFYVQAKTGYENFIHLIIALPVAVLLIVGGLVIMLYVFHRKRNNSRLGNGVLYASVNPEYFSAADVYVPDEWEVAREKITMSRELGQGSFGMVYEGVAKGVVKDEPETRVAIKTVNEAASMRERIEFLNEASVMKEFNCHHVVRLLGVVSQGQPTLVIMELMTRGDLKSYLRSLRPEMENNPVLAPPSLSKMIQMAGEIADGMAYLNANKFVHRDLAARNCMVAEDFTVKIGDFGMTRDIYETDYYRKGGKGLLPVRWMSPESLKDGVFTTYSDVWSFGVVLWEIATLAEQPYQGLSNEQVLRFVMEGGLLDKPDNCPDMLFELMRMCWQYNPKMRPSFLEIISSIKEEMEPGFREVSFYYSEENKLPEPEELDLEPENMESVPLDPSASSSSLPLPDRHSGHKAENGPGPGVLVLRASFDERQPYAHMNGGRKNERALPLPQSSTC

B1: 1H3 (antibody, V domains shown)
VH: EVQLVQSGGGLVLPGGSLRLSCAGSGFTFSNYAMHWIRQAPGKGLEWVSAIGAGGDTYYADSVKGRFTISRDNAKDSLYLQMNSLRAEDMAVYYCARGRHRNWYYYNKDYWGQGTLVTVSS
VL: EIVLTQSPATLSLSPGERATLSCRASQSVSSFLAWYQQKPGQAPRLLIYDASNRAPGIPARFSGSGSGTDFTLTISSLEPEDFAVYYCQQRSNWPRWTFGQGTKVEIKR
With B1, in assay [1], the affinity, expressed as Kd, was 860 pM.

B2: 19D12 (antibody, V domains shown)
VH: EVQLVQSGGGLVHPGGSLRLSCAASGFTFSSFAMHWVRQAPGKGLEWISVIDTRGATYYADSVKGRFTISRDNAKNSLYLQMNSLRAEDMAVYYCARLGNFYYGMDVWGQGTTVTVSS
VL: EIVLTQVPDFQSVTPKEKVTITCRASQSIGSSLHWYQQKPDQSPKLLIKYASQSLSGVPSRFSGSGSGTDFTLTINSLEAEDAAAYYCHQSSRLPHTFGGGTKVEIKR
Regarding B2, the results for the Kd in assay [2] and in assay [1] were 72.2 pM and 59.2 pM, respectively.

B3: 15H12 (antibody, V domains shown)
VH: EVQLVQSGGGLVHPGGSLRLSCAASGFTFSSFAMHWVRQAPGKGLEWISVIDTRGATYYADSVKGRFTISRDNAKNSLYLQMNSLRAEDMAVYYCARLGNFYYGMDVWGQGTTVTVSS
VL: EIVLTQVPDFQSVTPKEKVTITCRASQSIGSSLHWYQQKPDQSPKLLIKYASQSLSGVPSRFSGSGSGTDFTLTINSLEAEDAAAYYCHQSSRLPHTFGGGTKVEIKR
As to B3, the Kd worked out at 55.7 pM in assay [2] and 44.8 pM in assay [1].
